Experimental data from paper PMC5159831, “Harnessing the natural inhibitory domain to control TNFα Converting Enzyme (TACE) activity in vivo” (Scientific Reports, 2016).
Positions count from the first letter of the chain named. Names and notes keep the numbering of the source. Values belong to the binder of their own block, whether it stands above or below them.

Tests used:
[1] = biological target: recombinant TACE catalytic domain; experiment: cell-based or functional assay
[2] = biological target: the molecule itself; experiment: SDS-PAGE under non-reducing conditions; purified TPD; 40 kDa band = covalent (disulfide-linked) dimer, 20 kDa band = monomer

Sequence of recombinant TACE catalytic domain (P78536 215-671): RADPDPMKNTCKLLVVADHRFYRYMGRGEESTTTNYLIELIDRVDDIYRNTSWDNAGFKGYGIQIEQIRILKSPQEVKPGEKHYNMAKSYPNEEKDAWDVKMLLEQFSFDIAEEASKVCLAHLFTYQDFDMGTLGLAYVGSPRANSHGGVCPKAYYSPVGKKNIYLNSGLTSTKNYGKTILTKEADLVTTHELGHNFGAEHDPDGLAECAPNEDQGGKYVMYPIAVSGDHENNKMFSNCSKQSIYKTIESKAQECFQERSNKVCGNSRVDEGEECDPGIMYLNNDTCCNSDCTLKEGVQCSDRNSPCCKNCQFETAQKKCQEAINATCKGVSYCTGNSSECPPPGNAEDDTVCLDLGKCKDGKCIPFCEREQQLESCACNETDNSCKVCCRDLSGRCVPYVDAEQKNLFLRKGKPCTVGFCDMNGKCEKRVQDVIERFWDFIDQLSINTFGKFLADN

IC50 of inhibition of the enzyme's hydrolysis of a fluorogenic peptide (10 nM TACE, Mca-PLAQAV-Dpa-RSSSR 10 μM, 37 °C, 30 min pre-incubation with TPD) [1]: 145 nM
B1: TACE prodomain (TPD), wild type, Asp23-Arg214 (domain or fragment, human, UniProt P78536 23-214, looked up)
chain: DPGFGPHQRLEKLDSLLSDYDILSLSNIQQHSVRKRDLQTSTHVETLLTFSALKRHFKLYLTSSTERFSQNFKVVVVDGKNESEYTVKWQDFFTGHVVGEPDSRVLAHIRDDDVIIRINTDGAEYNIEPLWRFVNDTKDKRMLVYKSEDIKNVSRLQSPKVCGYLKVDNEELLPKGLVDREPPEELVHRVKR
notes: prodomain of human ADAM17/TACE, residues Asp23-Arg214; The methods say Asp24-Arg214, but the DNA fits Asp23; The WT runs as a disulfide-linked dimer without reducing agent; also called WT TPD; TPD WT; source: E. coli BL21 (DE3), pET28, soluble fraction, purified (Ni column, HiTrap Q, Superdex 75)
stoichiometry N [2]: 2

IC50 of inhibition of the enzyme's hydrolysis of a fluorogenic peptide (10 nM TACE, 37 °C) [1]: 33 nM
B2: TACE prodomain (TPD) C184A (domain or fragment, human, UniProt P78536 23-214, looked up)
chain: B1 chain with C162A
